Test results taken from patent EP1977765A1, “Peptide prodrugs” (Diatos, priority 2007, dated 2008).
Like-named read-outs stand apart in the source and are kept apart here.

Legend:
[1] = tested on: HCT 116 colon cancer cell line; assay: In vitro cytotoxicity, WST-1 viability test; assay type: cell-based; conditions: mean of 3 independent experiments
Method: The cytotoxicity of different drug conjugates was evaluated using the HCT 116 colon cancer cell line and was compared to the cytotoxicity of the free drug (doxorubicin, mitomycin C or paclitaxel). Cells were seeded at 8 000 cells/well and maintained in Mc Coy medium supplemented with 10% fetal bovine serum for 24 hours before treatment. Cells were incubated with increasing concentrations of drugs or conjugates at 37°C, 5% CO2. The medium was then removed and a WST-1 test (purchased from Roche) was performed according to the manufacturer's instructions. The cytotoxicity of the tested conjugates was expressed as the molar concentration inhibiting 50% of the cell viability (IC50), calculated using Graph Pad Prism 3.02 software. Experimental data are presented as the mean of three independent experiments performed in duplicate.
Table 1: Drug concentration that inhibits 50% of cell viability (IC50) using the HCT 116 cell line. Data represent the mean value of 3 independent experiments. After the indicated exposure time at 37°C, cells were rinsed and a viability assay (WST1 test) was performed to determine IC50.

[2] = In vitro human plasma stability of drug conjugates (HPLC); assay type: in vitro ADME; conditions: for remaining at 6 h, 100 µM: 100 µM paclitaxel conjugates, read-out: plasma stability (% conjugate)
Method: Human plasma (citrated human blood was centrifuged at 600 g for 10 min at +4°C, plasma was recovered and aliquots stored at -20°C) was used to assess the stability of the following drug conjugates: Suc-ALAL-doxorubicin, Suc-βALAL-doxorubicin, TA-ALAL-doxorubicin, Suc-βALAL-MMC, TA-ALAL-MMC, Suc-βALAL-paclitaxel and TA-ALAL-paclitaxel. The drug conjugates (50 µM doxorubicin or MMC, 100 µM paclitaxel conjugates) were incubated at 37°C with human plasma either for 0, 2 or 6 hours, 50 µL of sample were collected at each time point and extraction was performed immediately.
For the doxorubicin conjugate and metabolites, 150 µL of acetonitrile was added to the 50 µL samples. Samples were vortexed and centrifuged for 10 min at 13 000 rpm at room temperature. 100 µL were harvested and 200 µL of 2% ammonium formate pH 4.0 were added before centrifugation (10 min at 13 000 rpm). HPLC analysis (at 560 nm) was performed using the supernatant.
For MMC conjugate and metabolites were extracted prior to HPLC analysis. 100 µL of acetonitrile was added to the 50 µL of sample, prior to vortexing (10 seconds) and centrifugation (10 min at 13 000 rpm) at room temperature. 50 µL of supernatant was recovered and mixed with 150 µL of Phosphate Buffer Saline (PBS) 1X. After centrifugation (10 min at 13 000 rpm), 150 µL of supernatant were collected for HPLC analysis. Stability and reactivation were evaluated by HPLC analysis (at 270 nm) and MMC conjugate and metabolite peak areas were compared.
For the paclitaxel conjugate and metabolites, 150 µL of acetonitrile was added to 50 µL of sample, vortexed and centrifuged for 10 min at 13 000 rpm at room temperature. 100 µL of supernatant was recovered and mixed with 100 µL of water. After centrifugation (10 min at 13 000 rpm), the supernatant was collected for HPLC analysis (at 230 nm).

LS 174T tumors [3] = assay: In vivo anti-tumoral efficacy of doxorubicin conjugates in the LS 174T tumor model; parameters: species or system NMRI nude mice
Description: (§1) Treatments were initiated when the tumors had reached a size of 100 mm^3 (calculated using the following formula: [length x width^2]/2). […] During the course of the experiment, clinical signs, body weight and tumor volume were controlled twice a week. Results are presented as the evolution of mean tumor volume as a function of time. Optimal T/C (ratio of mean tumor volume of treated versus control mice) values were used as a measure of treatment efficacy. The optimal T/C% reflects the maximal tumor growth inhibition achieved. The experiment was repeated twice.

[4] = In vivo toxicity of doxorubicin conjugates in LS 174T tumor-bearing nude mice (i.v.); conditions: for equitoxic dose: i.v.
Method: Toxicity studies were conducted in LS 174T tumor-bearing nude mice following intravenous administration. […] LS 174T tumors were established by a subcutaneous implantation of cells (3 x 10^7 cells injected) in the right flank of 7 weeks old female NMRI nude mice (Janvier, France). The day of the first injection, animals were randomly assigned to groups of 6 animals. The TA-ALAL-doxorubicin and Suc-ALAL-doxorubicin conjugates were dissolved in saline and Suc-βALAL-doxorubicin was prepared in glucose 5%. All conjugates were delivered by bolus intravenous injection (i.v.) in the lateral tail vein at 10 µL/g. During the course of the experiment, clinical signs and body weight were controlled at least twice a week. The experiment was repeated twice. Table 2: In vivo toxicity of TA-ALAL-doxorubicin conjugate compared to Suc-βALAL-doxorubicin and Suc-ALAL-doxorubicin in LS 174T tumor-bearing mice.

LS 174T tumors [5] = assay: In vivo anti-tumoral efficacy of mitomycin C conjugates in the LS 174T tumor model; parameters: species or system NMRI nude mice
Description: as §1
The in vivo anti-tumoral efficacy of TA-ALAL-MMC was compared to that of Suc-βALAL-MMC in the LS 174T tumor model. The establishment of the LS 174T tumors and the treatments were carried out as previously described in Example V. TA-ALAL-MMC conjugate was dissolved in saline and Suc-βALAL-MMC conjugate was prepared in 3% DMSO in Sodium phosphate buffer (15mM). […] During the course of the experiment, clinical signs, body weight and tumor volume were controlled twice a week. The experiment was repeated twice. Table 4: Anti-tumoral efficacy of TA-ALAL-MMC compared to Suc-βALAL-MMC in the LS 174T tumor model.

[6] = Experiment 1, dose 67.7 µmol/kg i.v., groups of 6 animals
[7] = Experiment 1, dose 67.7 µmol/kg i.v., LS 174T tumor-bearing mice
[8] = Experiment 1, dose 67.7 µmol/kg i.v.
[9] = Experiment 2, LS 174T tumor-bearing mice
[10] = after 6 hours in human plasma at 37°C
[11] = Experiment 2, dose 77.4 µmol/kg i.v.
[12] = Experiment 1, dose 60 µmol/kg i.v.
[13] = Experiment 2, dose 80 µmol/kg i.v.

Compound CO[C@@]12[C@H](COC(N)=O)C3=C(C(=O)C(C)=C(N)C3=O)N1C[C@@H]1N[C@@H]12 [Mitomycin C (MMC), mitomycin C] has an IC50 ([1]; incubation time 24 h) of 5 µM.
In the case of COc1cccc2c1C(=O)c1c(O)c3c(c(O)c1C2=O)CC(O)(C(=O)CO)CC3OC1CC(NC(=O)C(CC(C)C)NC(=O)C(C)NC(=O)C(CC(C)C)NC(=O)C(C)NC(=O)CCC(=O)O)C(O)C(C)O1 (centres unmarked) [Suc-ALAL-dox, Suc-ALAL-doxorubicin], the IC50 ([1]; incubation time 48 h) is reported as 10 µM, the remaining at 2 h, 50 µM ([2]; human, plasma) is reported as 80% and the remaining at 6 h, 50 µM ([2]; human, plasma) is reported as 54%. The animals died (LS 174T tumors [3]; [6]) was 3 animals died, the “Maximal body weight loss %” value [4, 7] was 36.1% and the dead animals [4, 6] was 3.
In the case of COc1cccc2c1C(=O)c1c(O)c3c(c(O)c1C2=O)CC(O)(C(=O)CO)CC3OC1CC(NC(=O)C(CC(C)C)NC(=O)C(C)NC(=O)C(CC(C)C)NC(=O)CCNC(=O)CCC(=O)O)C(O)C(C)O1 (centres unmarked) [Suc-βALAL-dox, Suc-βALAL-doxorubicin], the IC50 ([1]; incubation time 48 h) is reported as > 10 µM, the remaining at 2 h, 50 µM ([2]; human, plasma) is reported as 77.2% and the remaining at 6 h, 50 µM ([2]; human, plasma) is reported as 47.5%. The “Optimal T/C (%)” value (LS 174T tumors [3]; [8]) was 52%, the “Optimal T/C (%)” value (LS 174T tumors [3]; Experiment 2, dose 47.4 µmol/kg i.v.) was 52% and the equitoxic dose [4, 9] was 47.4 µmol/kg. The “Maximal body weight loss %” value ([4]; mouse, in vivo, iv) was 15.9%.
Work on CC(=O)O[C@H]1C(=O)[C@@]2(C)[C@H]([C@H](OC(=O)c3ccccc3)[C@]3(O)C[C@H](OC(=O)[C@H](OC(=O)C(CC(C)C)NC(=O)C(C)NC(=O)C(CC(C)C)NC(=O)CCNC(=O)CCC(=O)O)[C@@H](NC(=O)c4ccccc4)c4ccccc4)C(C)=C1C3(C)C)[C@]1(OC(C)=O)CO[C@@H]1C[C@@H]2O (some centres unmarked) [Suc-βALAL-paclitaxel] yielded an IC50 ([1]; incubation time 4h + 72 h) of 0.762 µM and a remaining at 6 h, 100 µM [2, 10] of 41%.
In the case of COc1cccc2c1C(=O)c1c(O)c3c(c(O)c1C2=O)CC(O)(C(=O)CO)CC3OC1CC(NC(=O)C(CC(C)C)NC(=O)C(C)NC(=O)C(CC(C)C)NC(=O)C(C)NC(=O)C2C(C(=O)O)C(C(=O)O)C2C(=O)O)C(O)C(C)O1 (centres unmarked) [TA-ALAL-dox, TetraAcid-ALAL-doxorubicin], the IC50 ([1]; incubation time 48 h) is reported as > 10 µM, the remaining at 2 h, 50 µM ([2]; after 2 hours in human plasma at 37°C, 50 µM doxorubicin conjugates, read-out: percentage of intact conjugate) is reported as 83% and the remaining at 6 h, 50 µM ([2]; after 6 hours in human plasma at 37°C, 50 µM doxorubicin conjugates, read-out: percentage of intact conjugate) is reported as 67%. The “Optimal T/C (%)” value (LS 174T tumors [3]; [8]) was 42%, the “Optimal T/C (%)” value (LS 174T tumors [3]; [11]) was 36% and the “Maximal body weight loss %” value [4, 7] was 13.7%. The “Maximal body weight loss %” value ([4]; Experiment 2, dose 55.1 µmol/kg i.v.) was 11.3%, the “Maximal body weight loss %” value [4, 11] was 17.9% and the equitoxic dose [4, 9] was 77.4 µmol/kg.
With CC(=O)O[C@H]1C(=O)[C@@]2(C)[C@H]([C@H](OC(=O)c3ccccc3)[C@]3(O)C[C@H](OC(=O)[C@H](OC(=O)C(CC(C)C)NC(=O)C(C)NC(=O)C(CC(C)C)NC(=O)C(C)NC(=O)C4C(C(=O)O)C(C(=O)O)C4C(=O)O)[C@@H](NC(=O)c4ccccc4)c4ccccc4)C(C)=C1C3(C)C)[C@]1(OC(C)=O)CO[C@@H]1C[C@@H]2O (some centres unmarked) [TA-ALAL-paclitaxel, TetraAcid-ALAL-paclitaxel] the IC50 ([1]; incubation time 4h + 72 h) was 10 µM and the remaining at 6 h, 100 µM [2, 10] was 43%.
COc1cccc2c1C(=O)c1c(O)c3c(c(O)c1C2=O)C[C@@](O)(C(=O)CO)C[C@@H]3O[C@H]1C[C@H](N)[C@H](O)[C@H](C)O1 [doxorubicin (dox), doxorubicin] showed an IC50 ([1]; Homo sapiens, incubation time 48 h) of 0.034 µM.
CC(=O)O[C@H]1C(=O)[C@@]2(C)[C@H]([C@H](OC(=O)c3ccccc3)[C@]3(O)C[C@H](OC(=O)[C@H](O)[C@@H](NC(=O)c4ccccc4)c4ccccc4)C(C)=C1C3(C)C)[C@]1(OC(C)=O)CO[C@@H]1C[C@@H]2O [paclitaxel] gave an IC50 ([1]; Homo sapiens, incubation time 4h + 72 h) of 0.02 µM.
For Suc-βALAL-mitomycin C [Suc-βALAL-MMC], the IC50 ([1]; incubation time 24 h) was 67 µM, the “% of conjugates remaining” value ([2]; after 6 hours in human plasma at 37°C, 50 µM MMC conjugates) was 73% and the “Maximal body weight loss %” value (LS 174T tumors [5]; [12]) was 14.5%. The “Optimal T/C (%)” value (LS 174T tumors [5]; [12]) was 48%, the “Maximal body weight loss %” value (LS 174T tumors [5]; [13]) was 15.9% and the “Optimal T/C (%)” value (LS 174T tumors [5]; [13]) was 43%.
